From patent US20030145350A1, “Method for increasing the content of fatty acids in plants and micro-organisms” (priority 2000, published 2003)
Where two headings read alike, the source gives them in different places. One block for each molecule: values may come before it.

Tests used:
[1] = biological target: T1, Cuphea wrightii KAS IIIa (β-ketoacyl ACP synthase IIIa), recombinant wild-type, GenBank U15935 (Cuphea wrightii, UniProt P49244); assay: Inhibition of recombinant wild-type KAS IIIa by acyl ACPs and acyl CoAs ([1-14C] acetate incorporation into acetoacetyl ACP; Lineweaver-Burk); format: biochemical
T1 construct: His6 (N); made in house; host or cells: E. coli BL21(DE3)pLys, pET 15b vector
T1 sequence (P49244 68-400 limits assumed): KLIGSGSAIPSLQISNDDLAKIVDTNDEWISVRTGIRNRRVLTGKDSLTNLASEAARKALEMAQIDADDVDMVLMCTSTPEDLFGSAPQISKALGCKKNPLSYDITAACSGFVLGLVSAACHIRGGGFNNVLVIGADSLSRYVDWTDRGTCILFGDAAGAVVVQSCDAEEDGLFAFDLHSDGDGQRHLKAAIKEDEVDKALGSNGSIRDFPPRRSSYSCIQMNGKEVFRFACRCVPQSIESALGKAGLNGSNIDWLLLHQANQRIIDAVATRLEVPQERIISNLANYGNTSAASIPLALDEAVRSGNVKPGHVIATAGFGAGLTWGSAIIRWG
Experimental: (§1) Wild-type KAS III and KAS IIIa mutants were expressed with a His6-tag at the N-terminus in E. coli strain BL21(DE3)pLys (Novagen, Madison, USA) and purified by nickel affinity chromatography. Purity of the synthesised KAS IIIs was evaluated by SDS-PAGE. The KAS III concentration was determined by the method of Bradford (M. M. Bradford (1976), Anal. Biochem. 72, p. 248-254).
(§2) The activity of KAS IIIa was analysed by the incorporation of radioactive acetate from [1-^14C] acetyl CoA into acetoacetyl ACP (Brück et al. (1996), Planta 198, p. 271-278). The reaction mix (50 μl) contained 100 mM sodium phosphate, pH 7.6, 10 μM [1-^14C] acetyl CoA, 20 μM malonyl ACP and 2 ng of the recombinant KAS IIIa or the KAS IIIa mutant, respectively. The reaction was initiated by adding the enzyme and was performed for a period of 5 minutes at 30° C.
(§3) In the inhibition studies of the wild-type KAS IIIa the used conditions provided for saturation with respect to the substrates acetyl CoA and […]. As regards the inhibitors non-radioactive acyl ACPs (C2-C16) or acyl CoAs (C3-C12) were added at varying concentrations. The resulting data were analysed by the method of Lineweaver-Burk. The inhibition studies of the KAS IIIa mutants with acyl ACPs were performed with 10 μM non-radioactive dodecanoyl ACP (see FIG. 3).
(§4) The KAS III activity was measured as described above in the presence of varying concentrations of acyl ACP (5-25 μM) or of acyl CoA (10-50 μM).
FIG. 2: Kinetic of the inhibition of wild-type KAS III by dodecanoyl ACP. Double reciprocal plots of the concentration of acetyl CoA (A) and malonyl ACP (B) against the activity of KAS III in the absence (●) and presence of 1 μM (▴), 2.5 μM (▪) and 5 μM (▾) dodecanoyl ACP. The respective substrate partner was maintained at a constant level at 10 μM [1-^14C] acetyl CoA and 20 μM malonyl ACP. The enzyme activity was determined by monitoring the incorporation of [1-^14C] acetate from [1-^14C] acetyl CoA into β-ketobutyryl ACP (n=8).

[2] = biological target: recombinant wild-type Cuphea wrightii β-ketoacyl ACP synthase IIIa (cwKAS IIIa) (Cuphea wrightii); assay: inhibition of KAS IIIa enzyme activity ([1-14C] acetyl CoA incorporation), 5-25 µM acyl ACP, Lineweaver-Burk analysis
[3] = biological target: Cuphea wrightii KAS IIIa mutant Asn^358Asp (Cuphea wrightii); assay: cell-based or functional assay
[4] = biological target: Cuphea wrightii KAS IIIa mutant Ala^361Ser (Cuphea wrightii); assay: cell-based or functional assay
wild-type KAS IIIa = biological target: T2, wild-type KAS IIIa (Cuphea wrightii, UniProt P49244); assay: Inhibition of wild-type KAS IIIa by acyl ACPs and acyl CoAs ([1-14C] acetyl CoA incorporation into acetoacetyl ACP); format: biochemical; details: with respect to acetyl CoA or malonyl CoA; Lineweaver-Burk
T2 construct: His6 (N); made in house; host or cells: E. coli BL21(DE3)pLys, vector pET15b
T2 sequence (P49244 68-400 limits assumed): T1 sequence (P49244 68-400 limits assumed)
Experimental: as §2, §3, §4
FIG. 2: Kinetic of the inhibition of wild-type KAS III by dodecanoyl ACP. […] The enzyme activity was determined by monitoring the incorporation of [1-^14C] acetate from [1-^14C] acetyl CoA into β-ketobutyryl ACP (n=8).

[5] = test system: Cuphea wrightii KAS IIIa mutant Asn358Asp (N291D in the mature protein); assay: Inhibition of KAS IIIa mutant Asn358Asp by dodecanoyl ACP; format: biochemical
Experimental: (§5) Then, three point-mutated KAS IIIs were created by the substitution of asparagine^358 by aspartate, alanine^361 by serine and alanine^362 by proline. The amplification of the overlapping DNA fragments of the KAS III mutants was performed by two separate reactions, which each contained 2 ng K3MK-pGEMT plasmid as template, 2.5 U proof-reading Pfu polymerase, 200 μM dNTPs and 50 pmol of each of the primers in a total volume of 50 μl. Each reaction mix contained a flanking primer (Fse5 or Xho3) and the corresponding mutation primer. […]
as §1
(§6) The activity of KAS IIIa was analysed by the incorporation of radioactive acetate from [1-^14C] acetyl CoA into acetoacetyl ACP (Brück et al. (1996), Planta 198, p. 271-278). […]
(§7) In the inhibition studies of the wild-type KAS IIIa the used conditions provided for saturation with respect to the substrates acetyl CoA and malonyl CoA. […] The resulting data were analysed by the method of Lineweaver-Burk. […]

[6] = test system: Cuphea wrightii KAS IIIa mutant Ala361Ser (A294S in the mature protein); assay: Inhibition of KAS IIIa mutant Ala361Ser by dodecanoyl ACP; format: biochemical
Experimental: as §5, §1, §6, §7

[7] = acyl CoA 10-50 μM, pH 7.6, 30° C., 5 minutes, Lineweaver-Burk, read-out: Ki (acyl CoAs)
[8] = in the presence of a saturation concentration (10 μM) of dodecanoyl ACP

Chain of dodecanoyl ACP (P0A6A8 2-78): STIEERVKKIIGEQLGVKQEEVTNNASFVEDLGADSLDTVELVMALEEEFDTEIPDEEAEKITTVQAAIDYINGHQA
Chain of acyl ACP, chain length 16 carbon atoms (P0A6A8 2-78): as above
Chain of acyl ACP, chain length 10 carbon atoms (P0A6A8 2-78): as above
Chain of acyl ACP, chain length 8 carbon atoms (P0A6A8 2-78): as above
Chain of acyl ACP, chain length 2 carbon atoms (P0A6A8 2-78): as above
Chain of acyl ACP, chain length 4 carbon atoms (P0A6A8 2-78): as above
Chain of acyl ACP, chain length 14 carbon atoms (P0A6A8 2-78): as above
Chain of acyl ACP, chain length 6 carbon atoms (P0A6A8 2-78): as above

Ki [1, 7]: 12.5 ± 0.6 µM
Molecule: CCCCCCCCCC(=O)SCCNC(=O)CCNC(=O)[C@H](O)C(C)(C)COP(=O)(O)OP(=O)(O)OC[C@H]1O[C@@H](n2cnc3c(N)ncnc32)[C@H](O)[C@@H]1OP(=O)(O)O [acyl CoA C10]

Molecule: dodecanoyl ACP [listing 1 of 2 here]
Ki [2]: 0.4 µM | initial activity maintained in the presence of a saturation concentration (10 µM) of dodecanoyl ACP [3]: 85% | initial activity maintained in the presence of a saturation concentration (10 µM) of dodecanoyl ACP [4]: 85%

Ki [1]: 91.9 ± 0.9 µM
Molecule: CCCC(=O)SCCNC(=O)CCNC(=O)[C@H](O)C(C)(C)COP(=O)(O)OP(=O)(O)OC[C@H]1O[C@@H](n2cnc3c(N)ncnc32)[C@H](O)[C@@H]1OP(=O)(O)O [acyl CoA C4]

Molecule: acyl ACP, chain length 16 carbon atoms
Ki [2]: 1.3 µM

Molecule: acyl ACP, chain length 4 carbon atoms
Ki [2]: 2.9 µM

Molecule: dodecanoyl ACP [acyl ACPs 12]
type of inhibition of KAS IIIa (wild-type KAS IIIa): not competitive

Molecule: acyl ACP, chain length 8 carbon atoms
Ki [2]: 4.1 µM

Molecule: acyl ACP, chain length 6 carbon atoms
Ki [2]: 8 µM

Molecule: acyl ACP, chain length 2 carbon atoms
Ki [2]: 2.16 µM

Molecule: acyl ACP, chain length 14 carbon atoms
Ki [2]: 4 µM

Ki [1, 7]: 20 ± 0.7 µM
Molecule: CCCCCCCCCCCC(=O)SCCNC(=O)CCNC(=O)[C@H](O)C(C)(C)COP(=O)(O)OP(=O)(O)OC[C@H]1O[C@@H](n2cnc3c(N)ncnc32)[C@H](O)[C@@H]1OP(=O)(O)O [acyl CoA C12]

Molecule: acyl ACP, chain length 10 carbon atoms
Ki [2]: 4.1 µM

Ki [1, 7]: 24.4 ± 0.6 µM
Molecule: CCCCCCCC(=O)SCCNC(=O)CCNC(=O)[C@H](O)C(C)(C)COP(=O)(O)OP(=O)(O)OC[C@H]1O[C@@H](n2cnc3c(N)ncnc32)[C@H](O)[C@@H]1OP(=O)(O)O [acyl CoA C8]

Ki [1]: 20.8 ± 0.51 µM
Molecule: CCC(=O)SCCNC(=O)CCNC(=O)[C@H](O)C(C)(C)COP(=O)(O)OP(=O)(O)OC[C@H]1O[C@@H](n2cnc3c(N)ncnc32)[C@H](O)[C@@H]1OP(=O)(O)O [acyl CoA C3]

Ki [1, 7]: 42.7 ± 0.3 µM
Molecule: CCCCCC(=O)SCCNC(=O)CCNC(=O)[C@H](O)C(C)(C)COP(=O)(O)OP(=O)(O)OC[C@H]1O[C@@H](n2cnc3c(N)ncnc32)[C@H](O)[C@@H]1OP(=O)(O)O [acyl CoA C6]

Molecule: dodecanoyl ACP [listing 2 of 2 here]
inhibition by acyl ACP (in words) ([5]; 10 μM dodecanoyl ACP): almost not at all inhibited | initial activity maintained [5, 8]: about 85% | inhibition by acyl ACP (in words) ([6]; 10 μM dodecanoyl ACP): almost not at all inhibited | initial activity maintained [6, 8]: about 85%
